Results on 10 molecules are retold here after patent publication US20110318339A1.

The target of experiment [1] is recombinant mouse DLL4 (Cat# 1389-D4-050/CF, R&D Systems) (mouse) (UniProt Q9JI71). Nature of the experiment: ELISA, mDLL4 coated 0.5 ng/ul, Fab […]. (In general: An ELISA detects its analyte on a solid surface through an enzyme-linked reagent.)
Experiment [2] has the same target. In words: ELISA, mDLL4 coated 0.5 ng/ul, Fab 0.78 nM.
The target is the same in experiment [3]. Nature of the experiment: ELISA, mDLL4 coated 0.5 ng/ul, Fab 6.25 nM.
Experiment [4] shares this target. In words: ELISA, mDLL4 coated 0.5 ng/ul, Fab 12.50 nM.
Experiment [5] shares this target. In words: ELISA, mDLL4 coated 0.5 ng/ul, Fab 25.00 nM.
Experiment [6] has the same target. Nature of the experiment: ELISA, mDLL4 coated 0.5 ng/ul, Fab 50.00 nM.
The target is the same in experiment [7]. In words: ELISA, mDLL4 coated 0.5 ng/ul, Fab 100.00 nM.
The target in experiment [8] is recombinant human DLL4 (Cat# 1506-D4/CF, R&D Systems) (human) (UniProt Q9NR61). In words: ELISA, DLL4 coated, Fab […].
The target is the same in experiment [9]. In words: ELISA, DLL4 coated, Fab 20 nM.
The target is the same in experiment [10]. In words: ELISA, DLL4 coated, Fab 0.74 nM.
For experiment [11] the target is unchanged. In words: ELISA, DLL4 coated, Fab 2.22 nM.
The target is the same in experiment [12]. Nature of the experiment: ELISA, DLL4 coated, Fab 25 nM.
For experiment [13] the target is unchanged. Nature of the experiment: ELISA, DLL4 coated, Fab 50 nM.
For experiment [14] the target is unchanged. In words: ELISA, DLL4 coated, Fab 100 nM.
Experiment [15] has the same target. Nature of the experiment: ELISA, DLL4 coated, Fab 12.5 nM.

Sequence of recombinant mouse DLL4 (Cat# 1389-D4-050/CF, R&D Systems) (mouse) (Q9JI71 28-525 limits assumed): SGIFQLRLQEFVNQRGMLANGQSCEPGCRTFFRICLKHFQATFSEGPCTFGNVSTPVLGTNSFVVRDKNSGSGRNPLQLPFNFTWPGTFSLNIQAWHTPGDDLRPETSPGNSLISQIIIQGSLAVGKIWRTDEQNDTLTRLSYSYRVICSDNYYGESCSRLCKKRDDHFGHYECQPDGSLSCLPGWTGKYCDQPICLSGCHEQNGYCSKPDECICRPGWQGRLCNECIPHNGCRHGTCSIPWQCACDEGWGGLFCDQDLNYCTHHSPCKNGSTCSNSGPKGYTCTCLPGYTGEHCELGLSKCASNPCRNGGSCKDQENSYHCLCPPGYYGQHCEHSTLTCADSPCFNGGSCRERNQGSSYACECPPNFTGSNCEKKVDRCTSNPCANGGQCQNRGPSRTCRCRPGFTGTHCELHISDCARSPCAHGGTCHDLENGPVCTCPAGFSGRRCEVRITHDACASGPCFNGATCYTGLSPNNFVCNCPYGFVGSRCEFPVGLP

B1: Fab VH5-51_IGHD5-18*01>3_IGHJ4*01 G100K/G104T G24T/S28R/G35V (H:KT TRV) & V3-4_IGLJ1*01 M94R/S96M (L:RM) (Fab, V domains shown)
VH: EVQLVQSGAEVKKPGESLKISCKTSGYRFTSYWIVWVRQMPGKGLEWMGIIYPGDSDTRYSPSFQGQVTISADKSISTAYLQWSSLKASDTAMYYCARRKYSYTYDYFDYWGQGTLVTVSS
VL: QTVVTQEPSFSVSPGGTVTLTCGLSSGSVSTSYYPSWYQQTPGQAPRTLIYSTNTRSSGVPDRFSGSILGNKAALTITGAQADDESDYYCVLYRGMGISYVFGTGTKVTVL
Consider B1, for which the ELISA absorbance at 450 nm in [1] is 0.131 A450; in [2], 0.13 A450; in [3], 0.148 A450; in experiment [4] it was 0.186 A450; in experiment [5], 0.232 A450; in [6] it was 0.331 A450. In addition, the ELISA absorbance at 450 nm in experiment [7] amounted to 0.457 A450.

B2: Fab VH5-51_IGHD5-18*01>3_IGHJ4*01 G100K/G104T G24L/S28R/G35V & V3-4_IGLJ1*01 M94R/S96M (Fab, V domains shown)
VH: EVQLVQSGAEVKKPGESLKISCKLSGYRFTSYWIVWVRQMPGKGLEWMGIIYPGDSDTRYSPSFQGQVTISADKSISTAYLQWSSLKASDTAMYYCARRKYSYTYDYFDYWGQGTLVTVSS
VL: QTVVTQEPSFSVSPGGTVTLTCGLSSGSVSTSYYPSWYQQTPGQAPRTLIYSTNTRSSGVPDRFSGSILGNKAALTITGAQADDESDYYCVLYRGMGISYVFGTGTKVTVL
For B2, the ELISA absorbance at 450 nm in experiment [8] was 0 A450; in experiment [9] it was 0.003 A450; in [10], 0 A450; in experiment [11], 0 A450.

B3: Fab VH5-51_IGHD5-18*01>3_IGHJ4*01 G100K/G104T G24A/S28R/G35V & V3-4_IGLJ1*01 M94R/S96M (Fab, V domains shown)
VH: EVQLVQSGAEVKKPGESLKISCKASGYRFTSYWIVWVRQMPGKGLEWMGIIYPGDSDTRYSPSFQGQVTISADKSISTAYLQWSSLKASDTAMYYCARRKYSYTYDYFDYWGQGTLVTVSS
VL: QTVVTQEPSFSVSPGGTVTLTCGLSSGSVSTSYYPSWYQQTPGQAPRTLIYSTNTRSSGVPDRFSGSILGNKAALTITGAQADDESDYYCVLYRGMGISYVFGTGTKVTVL
For B3, the ELISA absorbance at 450 nm in experiment [8] came to 0.034 A450; in [9], 0.006 A450; in experiment [10] it was 0 A450; in experiment [11], 0 A450.

B4: Fab VH5-51_IGHD5-18*01>3_IGHJ4*01 G100K/G104T G24T/S28R/G35V Y105H & V3-4_IGLJ1*01 (Fab, V domains shown)
VH: EVQLVQSGAEVKKPGESLKISCKTSGYRFTSYWIVWVRQMPGKGLEWMGIIYPGDSDTRYSPSFQGQVTISADKSISTAYLQWSSLKASDTAMYYCARRKYSYTHDYFDYWGQGTLVTVSS
VL: QTVVTQEPSFSVSPGGTVTLTCGLSSGSVSTSYYPSWYQQTPGQAPRTLIYSTNTRSSGVPDRFSGSILGNKAALTITGAQADDESDYYCVLYMGSGISYVFGTGTKVTVL
Take B4: the ELISA absorbance at 450 nm came out at 0.19 A450 in experiment [12], 0.2 A450 in experiment [13], 0.23 A450 in experiment [14] and 0.21 A450 in experiment [15].

B5: Fab VH5-51_IGHD5-18*01>3_IGHJ4*01 G100K/G104T G24T/S28R/G35V Y105N & V3-4_IGLJ1*01 (Fab, V domains shown)
VH: EVQLVQSGAEVKKPGESLKISCKTSGYRFTSYWIVWVRQMPGKGLEWMGIIYPGDSDTRYSPSFQGQVTISADKSISTAYLQWSSLKASDTAMYYCARRKYSYTNDYFDYWGQGTLVTVSS
VL: QTVVTQEPSFSVSPGGTVTLTCGLSSGSVSTSYYPSWYQQTPGQAPRTLIYSTNTRSSGVPDRFSGSILGNKAALTITGAQADDESDYYCVLYMGSGISYVFGTGTKVTVL
For the molecule B5, the ELISA absorbance at 450 nm in [12] worked out at 0.19 A450; in [13], 0.18 A450; in experiment [14], 0.25 A450; in experiment [15] it was 0.21 A450.

B6: Fab VH5-51_IGHD5-18*01>3_IGHJ4*01 G100K/G104T G24T/S28R/G35V Y107F & V3-4_IGLJ1*01 (Fab, V domains shown)
VH: EVQLVQSGAEVKKPGESLKISCKTSGYRFTSYWIVWVRQMPGKGLEWMGIIYPGDSDTRYSPSFQGQVTISADKSISTAYLQWSSLKASDTAMYYCARRKYSYTYDFFDYWGQGTLVTVSS
VL: QTVVTQEPSFSVSPGGTVTLTCGLSSGSVSTSYYPSWYQQTPGQAPRTLIYSTNTRSSGVPDRFSGSILGNKAALTITGAQADDESDYYCVLYMGSGISYVFGTGTKVTVL
Turning to B6, the ELISA absorbance at 450 nm in experiment [12] was 0.2 A450; in [13], 0.24 A450; in [14] it was 0.28 A450; in [15], 0.21 A450.

B7: Fab VH5-51_IGHD5-18*01>3_IGHJ4*01 G100K & V3-4_IGLJ1*01 (Fab, V domains shown)
VH: EVQLVQSGAEVKKPGESLKISCKGSGYSFTSYWIGWVRQMPGKGLEWMGIIYPGDSDTRYSPSFQGQVTISADKSISTAYLQWSSLKASDTAMYYCARRKYSYGYDYFDYWGQGTLVTVSS
VL: QTVVTQEPSFSVSPGGTVTLTCGLSSGSVSTSYYPSWYQQTPGQAPRTLIYSTNTRSSGVPDRFSGSILGNKAALTITGAQADDESDYYCVLYMGSGISYVFGTGTKVTVL
Consider B7, for which the ELISA absorbance at 450 nm in experiment [12] was determined as 0.18 A450; in [13], 0.19 A450; in [14], 0.2 A450; in experiment [15] it was 0.19 A450.

B8: Fab VH5-51_IGHD5-18*01>3_IGHJ4*01 G100K/G104T G24T/S28R/G35V D109Q & V3-4_IGLJ1*01 (Fab, V domains shown)
VH: EVQLVQSGAEVKKPGESLKISCKTSGYRFTSYWIVWVRQMPGKGLEWMGIIYPGDSDTRYSPSFQGQVTISADKSISTAYLQWSSLKASDTAMYYCARRKYSYTYDYFQYWGQGTLVTVSS
VL: QTVVTQEPSFSVSPGGTVTLTCGLSSGSVSTSYYPSWYQQTPGQAPRTLIYSTNTRSSGVPDRFSGSILGNKAALTITGAQADDESDYYCVLYMGSGISYVFGTGTKVTVL
As for B8, the ELISA absorbance at 450 nm in experiment [12] amounted to 0.22 A450; in experiment [13], 0.25 A450; in [14], 0.3 A450; in [15] it was 0.24 A450.

B9: Fab VH5-51_IGHD5-18*01>3_IGHJ4*01 G100K/G104T S28R & V3-4_IGLJ1*01 M94R/S96M (Fab, V domains shown)
VH: EVQLVQSGAEVKKPGESLKISCKGSGYRFTSYWIGWVRQMPGKGLEWMGIIYPGDSDTRYSPSFQGQVTISADKSISTAYLQWSSLKASDTAMYYCARRKYSYTYDYFDYWGQGTLVTVSS
VL: QTVVTQEPSFSVSPGGTVTLTCGLSSGSVSTSYYPSWYQQTPGQAPRTLIYSTNTRSSGVPDRFSGSILGNKAALTITGAQADDESDYYCVLYRGMGISYVFGTGTKVTVL
On to B9, for which the ELISA absorbance at 450 nm in [8] turned out to be 0.001 A450; in experiment [9] it was 0.011 A450; in experiment [10] it was 0 A450; in [11] it was 0.003 A450.

B10: Fab VH5-51_IGHD5-18*01>3_IGHJ4*01 G104T & V3-4_IGLJ1*01 (Fab, V domains shown)
VH: EVQLVQSGAEVKKPGESLKISCKGSGYSFTSYWIGWVRQMPGKGLEWMGIIYPGDSDTRYSPSFQGQVTISADKSISTAYLQWSSLKASDTAMYYCARRGYSYTYDYFDYWGQGTLVTVSS
VL: QTVVTQEPSFSVSPGGTVTLTCGLSSGSVSTSYYPSWYQQTPGQAPRTLIYSTNTRSSGVPDRFSGSILGNKAALTITGAQADDESDYYCVLYMGSGISYVFGTGTKVTVL
As for B10, the ELISA absorbance at 450 nm in experiment [12] was determined as 0.18 A450; in [13] it was 0.17 A450; in experiment [14], 0.17 A450; in experiment [15] it was 0.19 A450.
